Data as given in article doi:10.1101/2023.12.10.570962 (bioRxiv, 2023).

Biological target: Legionella collagen-like protein (Lcl) from L. pneumophila strain 130b, intact, residues 1-401 (Legionella pneumophila strain 130b)
Test: SEC-MALS

“Legionella collagen-like protein (Lcl) from L. pneumophila strain 130b, intact, residues 1-401 (natural protein)” gave a stoichiometry N of 3.
